The source of these data is patent US20010041790A1.

The target of the test is 35S-labeled hamster PrPsen, glycophosphoinositol-negative form (35S-HaPrPsen) (Syrian golden hamster) (UniProt P04273). Nature of the test: cell-based or functional assay.

As to HaP109-141(del113-116) (peptide), the IC50 of the conversion reaction was found to be 70 µM.
